One substance from patent publication US20040253677 can be followed below.

The subject of this data set is HA-GβL.

With myc-mTOR (full-length), the “in vitro mTOR kinase activity (autophosphorylation and activity towards GST-S6K1)” value was “GβL-mediated stimulation of the mTOR kinase activity correlates with the amount of GβL bound to mTOR and is independent of raptor”.
